Holding throughout (conditions): tags: R&D Systems; chain copies: 2
Data set [1] deals with T1, NGF (nerve growth factor) (Homo sapiens, UniProt P01138 P01138:122-241). In words: cell_activity; neurite; TF-1 0.013.
Data set [2] has as its target T2, NT-3 (neurotrophin-3) (Homo sapiens, UniProt P20783 P20783:139-257).
T2 sequence: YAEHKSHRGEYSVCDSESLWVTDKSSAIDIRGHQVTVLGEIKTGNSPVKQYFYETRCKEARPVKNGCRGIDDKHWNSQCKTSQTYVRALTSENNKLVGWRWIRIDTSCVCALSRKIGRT
Put plainly: cell_activity; TF-1. The source says: (§1) Using TF-1 cells, whether NGF aptamer inhibits BDNF, NT-3, NT-4 was examined. Human receptor genes (TrkB, TrkC, p75) for respective neurotrophic factors were introduced into TF-1 cells (ATCC Number: CRL-2003), which is a human erythroleukemic cell line, by using a retrovirus vector to give cells that highly express these receptors stably. TF-1 cells introduced with TrkB and p75 were used for the evaluation of inhibitory activity against BDNF, TF-1 cells introduced with TrkC and p75 were used for the evaluation against NT-3, and TF-1 cells introduced with TrkB alone were used for the evaluation against NT-4. These cells were suspended in an RPMI-1640 medium containing 20% fetal bovine serum, and seeded in a white 96 well flat-bottom plate at 1000 cells (50 μL) per well. Thereto was added a mixed solution 50 μL of human BDNF (final concentration 0.074 nM) or NT-3 (final concentration 0.074 nM) or NT-4 (final concentration 0.071 nM) and the aptamer (final concentration 1 μM-0.01 nM), which had been pre-reacted at room temperature for 30 min in a serum-free RPMI-1640 medium, 3 days later, 100 μL of CellTiter-Glo reagent for CellTiter-Glo Luminescent Cell Viability Assay (manufactured by Promega) was added to each well, chemiluminescence was measured by a microplate reader. With the amount of luminescence per well obtained by the addition of BDNF or NT-3 or NT-4 alone and culture of the cells for 3 days as inhibitory activity 0%, and that of the well obtained by culture for 3 days without addition of BDNF or NT-3 or NT-4 as inhibitory activity 100%, the inhibitory activity of the aptamer was calculated from the amount of luminescence per well obtained by culturing with the addition of BDNF or NT-3 or NT-4 and the aptamer in mixture. When the inhibitory activity was 0 or below, ‘0%’ is indicated. The 50% inhibitory concentration (IC₅₀) was determined from the concentrations at two, above and below points sandwiching the 50% inhibitory activity. An IC₅₀ value indicated as “>X” means that the inhibitory activity was not more than 50% when the indicated concentration X was the maximum measured concentration. N.D. means not measured.

Data set [3] deals with T3, NT-4 (neurotrophin-4) (Homo sapiens, UniProt P34130 P34130:81-210).
T3 sequence: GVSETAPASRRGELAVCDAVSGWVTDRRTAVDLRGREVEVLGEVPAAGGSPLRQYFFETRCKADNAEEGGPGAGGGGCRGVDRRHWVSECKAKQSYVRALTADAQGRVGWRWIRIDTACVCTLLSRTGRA
In words: cell_activity; TF-1.
Source text: as §1

Data set [4] deals with T1, NGF (nerve growth factor). In words: cell_activity; neurite; TF-1 0.034.
In data set [5] the target is T1, NGF (nerve growth factor). Put plainly: cell_activity; neurite; TF-1 0.021.
Data set [6] deals with T2, NT-3 (neurotrophin-3). Put plainly: cell_activity; TF-1 TrkC/p75 cells.
Source text: as §1

Data set [7] deals with T3, NT-4 (neurotrophin-4). Put plainly: cell_activity; TF-1 TrkB cells. The source says:
Using TF-1 cells, whether NGF aptamer inhibits BDNF, NT-3, NT-4 was examined. Human receptor genes (TrkB, TrkC, p75) for respective neurotrophic factors were introduced into TF-1 cells (ATCC Number: CRL-2003), which is a human erythroleukemic cell line, by using a retrovirus vector to give cells that highly express these receptors stably. TF-1 cells introduced with TrkB and p75 were used for the evaluation of inhibitory activity against BDNF, TF-1 cells introduced with TrkC and p75 were used for the evaluation against NT-3, and TF-1 cells introduced with TrkB alone were used for the evaluation against NT-4. These cells were suspended in an RPMI-1640 medium containing 20% fetal bovine serum, and seeded in a white 96 well flat-bottom plate at 1000 cells (50 μL) per well. Thereto was added a mixed solution 50 μL of human BDNF (final concentration 0.074 nM) or NT-3 (final concentration 0.074 nM) or NT-4 (final concentration 0.071 nM) and the aptamer (final concentration 1 μM-0.01 nM), which had been pre-reacted at room temperature for 30 min in a serum-free RPMI-1640 medium, 3 days later, 100 μL of CellTiter-Glo reagent for CellTiter-Glo Luminescent Cell Viability Assay (manufactured by Promega) was added to each well, chemiluminescence was measured by a microplate reader. With the amount of luminescence per well obtained by the addition of BDNF or NT-3 or NT-4 alone and culture of the cells for 3 days as inhibitory activity 0%, and that of the well obtained by culture for 3 days without addition of BDNF or NT-3 or NT-4 as inhibitory activity 100%, the inhibitory activity of the aptamer was calculated from the amount of luminescence per well obtained by culturing with the addition of BDNF or NT-3 or NT-4 and the aptamer in mixture. […] The 50% inhibitory concentration (IC₅₀) was determined from the concentrations at two, above and below points sandwiching the 50% inhibitory activity. An IC₅₀ value indicated as “>X” means that the inhibitory activity was not more than 50% when the indicated concentration X was the maximum measured concentration. N.D. means not measured.

Data set [8] concerns the target T1, NGF (nerve growth factor). In words: cell_activity; TF-1 cell proliferation inhibition. As to the method:
(§2) Two NGF receptor (human TrkA and human p75) genes were introduced into TF-1 cells (ATCC Number: CRL-2003), which is a human erythroleukemic cell line, by using a retrovirus vector to give cells that highly express two receptors simultaneously and stably. The cells were suspended in an RPMI-1640 medium containing 20% fetal bovine serum, and seeded in a white 96 well flat-bottom plate at 1000 cells (50 μL) per well. […] With the amount of luminescence per well obtained by the addition of NGF alone and culture of the cells for 3 days as inhibitory activity 0%, and that of the well obtained by NGF free culture for 3 days as inhibitory activity 100%, the inhibitory activity of the aptamer was calculated from the amount of luminescence per well obtained by culturing with the addition of NGF and the aptamer in mixture.

The target of data set [9] is T1, NGF (nerve growth factor). In words: cell_activity; neurite; TF-1 0.085.
Data set [10] concerns the target T1, NGF (nerve growth factor). Put plainly: cell_activity; neurite; TF-1 0.084. As to the method: With the neurite length per cell obtained by the addition of NGF alone as inhibitory activity 0%, and that of the cell obtained by NGF free culture for 2 days as inhibitory activity 100%, the inhibitory activity of the aptamer was calculated from the neurite length per cell obtained by culturing with the addition of NGF and the aptamer in mixture.
as §2

The target of data set [11] is T1, NGF (nerve growth factor). In words: SPR; binding maintained on shortening. (Surface plasmon resonance follows binding to a sensor surface in real time, without labels.)

The term IC50 denotes the point on the concentration scale where inhibition reaches its midpoint. A high value points to weaker potency in that assay.

T1 sequence (P01138 122-241, one chain of several): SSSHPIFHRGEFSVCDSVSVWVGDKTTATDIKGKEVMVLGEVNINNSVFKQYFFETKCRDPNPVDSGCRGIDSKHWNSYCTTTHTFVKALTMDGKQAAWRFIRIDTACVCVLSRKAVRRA

For GGGUCCUGACUAAGAGUUUCCGUCUCGUAGUCUGUUACCC (ssRNA, 2'-OMe G (G8,G34 2'-OH), dA, 2'-F C/U; 5',3' idT) [SEQ ID NO: 77(1)], inhibition in data set [1] was half-maximal at 0.126 nM (IC50).
Regarding GGGUCCUGGAUAAGAGUUUCCGUCUCGUAUCCUGUUACCC (ssRNA, as 82(1) except 2'-OMe C32) [SEQ ID NO: 82(13)], the IC50 worked out at 48.8 nM with NT-3 (neurotrophin-3) [2], 3.06 nM with NT-4 (neurotrophin-4) [3] and 0.146 nM in data set [4].

B1: SEQ ID NO: 78(4) (printed 76(4) in sequence list) (ssRNA)
RNA: GGGUCCUGGCCAAGAGUUUCCGUCUCGUGGUCUGUUACCC
modifications: 2'-OMe G (G8,G34 2'-OH), dA, 2'-F C/U except 2'-OMe U4,C6,C10,C11,C21,U23,C26,U28,U31,C32,U35,C38-40; 5',3' idT
Consider B1, for which the 50% inhibitory concentration (IC50) with NT-3 (neurotrophin-3) [2] was 3 nM; in the data set with NT-4 (neurotrophin-4) [3], < 100 nM; in [5] it was 0.037 nM.
Molecule GGGUCCUGAUUAAGAGUUUCCGUCUCGUAAUCUGUUACCC (ssRNA, 2'-OMe G (G8,G34 2'-OH), dA, 2'-F C/U; 5',3' idT) [SEQ ID NO: 76(1)] showed an IC50 in [1] of 0.117 nM.

B2: SEQ ID NO: 82(2) (ssRNA)
RNA: GGGUCCUGGAUAAGAGUUUCCGUCUCGUAUCCUGUUACCC
modifications: 2'-F C and U except U4; 2'-OMe G1-3,U4,G9,G14,G16,G22,G27; 2'-OH G8,G34; 2'-H A; idT 5' and 3'
Turning to B2, the half-inhibitory concentration (IC50) in the data set with NT-3 (neurotrophin-3) [6] was 40.6 nM; with NT-4 (neurotrophin-4) [7], < 3 nM; in data set [8] it was 0.041 nM.
With GGGUCCUGGAUAAGAGUUUCCGUCUCGUAUCCUGUUACCC (ssRNA, as 82(25) except 2'-OMe A15) [SEQ ID NO: 82(42)], the half-inhibitory concentration (IC50) in data set [5] turned out to be 0.037 nM.
For GGGUCCUGGAUAAGAGUUUCCGUCUCGUAUCCUGUUACCC (ssRNA, as 82(1) except 2'-OMe U4,C6,U11,C21,U23,U28,U30,C32,U35,C38-40) [SEQ ID NO: 82(21)], the IC50 with NT-3 (neurotrophin-3) [2] is < 30 nM; in data set [9] it was < 0.1 nM.
With GGGUCCUGGAUAAGAGTUUCCGUCUCGUAUCCUGUUACCC (ssRNA, as 82(1) except dT17) [SEQ ID NO: 156], the figures for the half-maximal inhibitory concentration (IC50) (with NT-3 (neurotrophin-3) [2]; with NT-4 (neurotrophin-4) [3]; in data set [9]) were < 30 nM, < 3 nM and < 0.1 nM, respectively.
With GGGUCCUGGAUAAGAGUUUCCGUCUCGUAUCCUGUUACCC (ssRNA, as 82(1) except 2'-OMe U4,C6,U11,C21,U23,U28,U30,C31,C32,U35,C38-40) [SEQ ID NO: 82(24)], the IC50 in the data set with NT-3 (neurotrophin-3) [2] is < 30 nM; in data set [10], < 0.1 nM.
In the case of GGGUCCUGGAUAAGAGUUUCCGUCUCGUAUCCUGUUACCC (ssRNA, as 82(1) except 2'-OMe C21) [SEQ ID NO: 82(6)], the 50% inhibitory concentration (IC50) was < 30 nM in the data set with NT-3 (neurotrophin-3) [2], < 3 nM with NT-4 (neurotrophin-4) [3] and 0.128 nM in data set [4].
Consider GGGUCCUGGAUAAGAGUUUCCGUCUCGUAUCCUGUUACCC (ssRNA, as 82(1) except 2'-OMe U4,C6,U11,C21,U23,C26,U30,C31,C32,U35,C38-40) [SEQ ID NO: 82(23)], for which the half-maximal inhibitory concentration (IC50) in the data set with NT-3 (neurotrophin-3) [2] is < 30 nM; in data set [10] it was < 0.1 nM.
As to GGGUCCUGACCAAGAGUUUCCGUCUCGUGGUCUGUACCC (ssRNA, 2'-F C and U; 2'-OH G; 2'-H (deoxy) A) [SEQ ID NO: 92], the binding result in [11] is reported as “binds”.

For the origin of these results see patent US20140235701, “NGF APTAMER AND APPLICATION THEREOF” (RIBOMIC INC., published 2014).
